In patent US20110293593A1, “SIVA 2 STABILIZATION” (YEDA RESEARCH AND DEVELOPMENT CO., LTD., priority 2008, published 2011):

Tests used:
TRAF2 = molecular target: T1, TRAF2 (Homo sapiens, UniProt Q12933); experiment: In-vitro protein-binding assay, TRAF2; details: FLAG-TRAF2 incubated with GST-SIVA2
T1 construct: made in house; host or cells: HEK293T (FLAG-TRAF2); bacteria, pGEX2T (GST-SIVA2)
T1 sequence (Q12933 1-501): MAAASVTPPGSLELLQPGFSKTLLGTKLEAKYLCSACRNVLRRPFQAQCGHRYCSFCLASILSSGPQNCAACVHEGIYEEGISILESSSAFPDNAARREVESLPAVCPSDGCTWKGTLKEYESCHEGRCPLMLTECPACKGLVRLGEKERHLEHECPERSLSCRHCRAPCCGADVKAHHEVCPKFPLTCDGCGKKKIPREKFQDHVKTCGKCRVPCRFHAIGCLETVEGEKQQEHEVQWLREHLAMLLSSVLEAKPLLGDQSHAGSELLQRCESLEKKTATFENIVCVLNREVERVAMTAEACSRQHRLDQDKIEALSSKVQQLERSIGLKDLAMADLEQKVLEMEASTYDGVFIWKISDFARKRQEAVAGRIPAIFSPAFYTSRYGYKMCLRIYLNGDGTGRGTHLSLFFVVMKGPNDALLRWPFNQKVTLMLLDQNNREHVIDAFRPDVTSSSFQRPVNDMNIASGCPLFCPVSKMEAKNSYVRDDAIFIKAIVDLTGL
Procedure: (§1) (A) Transfected SIVA2 binds to endogenous TRAF2. FLAG-SIVA2 or HIS-SIVA2 (control) was transfected into HEK293T cells. SIVA2 was immunoprecipitated using anti-FLAG M2 beads and the co-precipitated cellular TRAF2 was assayed by western blotting. The total cellular level of TRAF2 is shown at the bottom. (B) SIVA2 binds TRAF2 inducibly. Treatment of the cells EcR293-CD27-SIVA2 with ponasterone for 2 h to induce SIVA2, and treated with CD70 as indicated was followed by immunoprecipitation of TRAF2. […] FLAG-tagged TRAF2 was immunoprecipitated from transfected HEK293T cells with anti-FLAG M2 beads, eluted from the beads using FLAG peptide and incubated with GST-SIVA2 or its mutant, and then subjected to immunoprecipitation and western blotting as indicated. […] Left panel: Binding in vitro. Recombinant cIAP1 was incubated with GST-SIVA2 or its mutant. Right and bottom panels depict binding in transfected HEK293T cells. Right panel: Cells were transfected with HIS-SIVA2, HIS-SIVA2 (1-58), or FLAG-TRAF2. After 28 h the endogenous cIAP1 was immunoprecipitated. MG132 was applied for the last 6 h of incubation. Bottom panel: Cells were transfected with FLAG-SIVA2, FLAG-SIVA2 (1-58) or, as a specificity control, FLAG-GST-BR3-ICD* (in which the BAFF receptor intracellular domain is mutated at its TRAF3-binding region (PVPAT>AVAAA)). […] N/A, not analyzed. […]

cIAP1 [1] = molecular target: T2, cIAP1 (Homo sapiens, UniProt Q13490); experiment: In-vitro substrate ubiquitination assay, cIAP1; type: biochemical; details: recombinant cIAP1, E2 UbCH5b or Ubc13/Uev1a
T2 sequence (Q13490 whole entry, species assumed): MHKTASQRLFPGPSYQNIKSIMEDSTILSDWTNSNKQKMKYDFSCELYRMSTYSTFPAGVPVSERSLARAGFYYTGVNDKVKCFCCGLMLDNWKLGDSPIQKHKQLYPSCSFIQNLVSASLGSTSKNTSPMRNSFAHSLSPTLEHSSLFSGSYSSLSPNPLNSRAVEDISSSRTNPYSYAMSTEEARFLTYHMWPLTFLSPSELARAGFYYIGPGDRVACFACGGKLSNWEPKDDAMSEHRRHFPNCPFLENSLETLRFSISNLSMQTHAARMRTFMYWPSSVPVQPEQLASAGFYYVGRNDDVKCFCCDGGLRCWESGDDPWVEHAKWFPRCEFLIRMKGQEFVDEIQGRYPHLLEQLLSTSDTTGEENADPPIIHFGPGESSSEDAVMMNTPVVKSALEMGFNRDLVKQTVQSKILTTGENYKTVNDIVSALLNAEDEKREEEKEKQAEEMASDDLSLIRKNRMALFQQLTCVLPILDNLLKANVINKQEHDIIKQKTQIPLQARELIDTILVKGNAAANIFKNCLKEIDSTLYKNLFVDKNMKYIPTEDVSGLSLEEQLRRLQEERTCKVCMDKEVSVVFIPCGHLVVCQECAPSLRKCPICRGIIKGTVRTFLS
Procedure: FIG. 9 SIVA2 mediates ubquitination of both TRAF2 and cIAP1. (A) cIAP-1 is required for SIVA2-mediated TRAF2 ubiquitination in cells. HEK293T cells were transfected with cIAP1 siRNA and, 24 h later, with the other plasmids as indicated. The extent of ubiquitination of the TRAF2 immunoprecipitated from the lysates of these cells, as well as the cellular levels of the endogenous cIAP1 and cIAP2 and the transfected ubiquitin, were determined by western blot analyses. (B) SIVA2, but not SIVA1, enhances K48-linked polyubiquitination of TRAF2 in cells. HEK293T cells grown in 90-mm plates were transfected by the calcium phosphate method with 4 μg of FLAG-TRAF2 (C34A), together with […] of HA-ubiquitin mutant plasmids and 6 μg of HIS-SIVA2 or HIS-SIVA2 (C73A) or HIS-SIVA1. The cells were lysed 24 h after transfection and TRAF2 was precipitated and analyzed as indicated. Wild-type SIVA2 and SIVA1, as well as SIVA2 (C73A) mutant, co-precipitated with TRAF2 (bottom panel). […]
In-vitro ubiquitination. […] Supernatants of the reaction were analyzed for free polyubiquitin chains formed in solution. For assay of self-ubiquitination of SIVA2 the glutathione beads were washed three times with a buffer containing 20 mM HEPES pH 7.6, 250 mM NaCl, 1 mM DTT, 1% Triton X-100 and Complete Protease Inhibitor Cocktail, boiled with LDS sample buffer (Invitrogen), and analyzed by western blotting. […]

cIAP1 [2] = molecular target: T2, cIAP1; experiment: In-vitro protein-binding assay, cIAP1; details: recombinant cIAP1 incubated with GST-SIVA2
Procedure: as §1

- binding of SIVA2 to TRAF2 in vitro (TRAF2): binds TRAF2 in vitro
- ubiquitination of cIAP1 (cIAP1 [1]): effectively ubiquitinated
- binding of SIVA2 to cIAP1 (cIAP1 [2]): binds at its N-terminus to cIAP1
B1: SIVA2: short splice variant of SIVA, E3 ligase (NM—021709, SEQ ID NO:11); recombinant GST fusion in in-vitro tests (protein)
chain: MPKRSCPFADVAPLQLKVRVSQRELSRGVCAERYSQEVFDPSGVASIACSSCVRAVDGKAVCGQCERALCGQCVRTCWGCGSVACTLCGLVDCSDMYEKVLCTSCAMFET
modifications: left off: a dimerising Fc or GST; large carriers; small tags and cut ends
notes: recombinant GST fusion in in-vitro tests
